# Assay results reported in the nanobody polyreactivity screen of Harvey et al. (2022).
# Experiment: yeast display, Sf9 membrane polyspecificity reagent, FACS + sequencing; frameworks hold sequencing errors
# In short: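 In a synthetic yeast display library (Saccharomyces cerevisiae BJ5465), nanobody expression was induced with galactose for 36–48 hours. FACS gates were set low and high (top ~1%) using anti-HA fluorescence for expression and streptavidin fluorescence for binding of the Sf9 membrane reagent. Each polyreactivity label is drawn from the gate of origin.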
row,Sequence,polyreactivity (PSR sort gate)
1,QVQLVESGGALVQAGGSLRLSCAASRSIFSNAMGWYRQAPRKERELDAAITGRGGRTYYADSVKGRFTISRDNAKYTVYLQMNSLNPEDTAVYYCARDSPWSSRYRYRAFDYWGQGTQVTVSS,high polyreactivity
2,QVQLVESGGALVQAGGSLRLSCAPSGFTFMRYAMGWYRQAPGKERELDAAIRGTGTSTYYADSVKVRFTISRDNAKNTVYLQMNSLNPEDTAVYYCNKVAGRSPYTRYDYWAQGTQVTVSS,low polyreactivity
3,QVQLVESGGALVQAGRSLRLSCAASGSIFSSYAMGRYRQAPGKERELVAAISRSGGRTYYADSVKGRFTITRDNAKNTVYLQMNSLKTEDTAVYYCAARRVLGEYGYWGQGTQVTVSS,high polyreactivity
4,QVQLVESGGALVQAGVSLRLSCAASGSIFRFYAMGWNKQAPGKERELVAAITSGGSTNYADSVKGRFTISRDNEKNTVYLQMNSLKPEDTAVFYCAAELVFFFIFDYWGQGTQVTVSS,low polyreactivity
5,QVQLVESGGCIVQAGGSLRLSCAATGRTFYIYAMGWYRQPPGKESELVATITRGGSTNYADSVKGRFTSSRDNAKNTVYLQMNSLKPVDTAVYYCAAESYFTNWRNRYDYWGQGSQVTVSS,high polyreactivity
6,QVQLVESGGCIVQEGGSLRLSGAASGSTIRGNAMGWYRHAHGQEREFVADITRNGGRTYYADSVKGRFTISRDNAKNTVYLQMNSLKPEDTAVSYCAKRDAYFVSQRNMDYWGQGTQVTVSS,high polyreactivity
7,QVQLVESGGCLDQAGGSLRLSCAASGITFGPYAMGWYSQAPGKERELVAAITWGGGSTYYADSVKGRFTLSRDNAKNTDYLLMNSLKPEDTADYYCNAEGSTTSRYLPYDYWGQGTQVTVSS,low polyreactivity
8,QVQLVESGGCLFQAGGSLRLSCAASGFIFGTYAIGWYRQAPGKERELVAAISVGRGSTYYADSVKGRFTISRDNAKNTVYLQMNSLKPEDTAVYYCAAVQLYQKHQITYVAHEYWGHGTQVTVSS,low polyreactivity
9,QVQLVESGGCLVKAGGSLRLSCAASGSTFHYYPMGWYRQAPGKERELFAAISTSGVRTYYADSVKGRFTISRDNAKNTVYLQMNRLKPEDTAVYYCAARRGYVKGKTYDYWGQGSQVTVSS,high polyreactivity
10,QVQLVESGGCLVQAGGRLRLSFAASGLTFEQYAMGWYRQAPGKERELVPAISRRGTSTYYADSVKGRFTISRDNAKNTVFLQMNSLKPEDTAVYYCNAGWWYLGSPFDRDYWGQGTQVTVSS,high polyreactivity
11,QVQLVESGGCLVQAGGSHRLSCAASGSIFKYYTMGWYRQAPGKERELDAAITTRGTSTNYADSVKGRFTISRDNAKHTVYFQMNSLKPEDTAVYYCAARLSSLISMNYWGQGTQVTVSS,high polyreactivity
12,QVQLVESGGCLVQAGGSLRISCAASGLTFKGYTMGWYRQAPGKEREFVAAITGGVGSTYYADSVKGRFTISRDNAKNTVYVHMKSLQPEDTAVYYCNSVSYGYTDLYIFYTGYYYWGQGTQVTVSS,low polyreactivity
13,QVQLVESGGCLVQAGGSLRLICAASGRTFIAKAMGWYRQAPGKERELVAVITLNGGSTYYADSVKGRFTISRDNAKSTVYLQMNSLKPEDTAVYYCAAGRYYNLRATHGYWGQGTQVTVSS,low polyreactivity
14,QVQLVESGGCLVQAGGSLRLISAASGSTFQRYAIGWYRQAPGKERELVAAITWSNGSTYYADSVKGRFTISRDNAKNTVYLQMISLKPEDTAVYYCAAEVHFGGDYWGQGTQVTVSS,low polyreactivity
15,QVQLVESGGCLVQAGGSLRLSCAASAFIFVGNDMGLYRQAPGKEREFVAAISSGGTTNYADSVKGRFTISRDNAKNTVYLQMNSLKPEDTAVYYCGADYDYRQGYDSVHLDYWVQGTQVTVSS,low polyreactivity
16,QVQLVESGGCLVQAGGSLRLSCAASGFIFAYYAMGWYRQARGKERELVAAISYSGSTKYSDSVKGRFTISRDNSKNTVNLQMNSLKPEDTAVYYCAADRVWGTPQAYVPSQFDYWGQGTQVTVSS,low polyreactivity
17,QVQLVESGGCLVQAGGSLRLSCAASGFILSGNTMGWYRQAPGKERELVAGINDDSSTYYADSVKGGFTISRDNAKNTVYLQMNSLKPEDTAVYYCNAGQSWYPSWYYYWGQGTQVTVSS,low polyreactivity
18,QVQLVESGGCLVQAGGSLRLSCAASGGIFPGNAMGWYRQAPGKERELVATISYSGGSTYYADSVKGRFTISRDNAKNTVYLQMNSLKPEDTAVYYCAARGYKPTRSRRTEYGYWGQGTQVTVSS,high polyreactivity
19,QVQLVESGGCLVQAGGSLRLSCAASGIIFDDYAMGWYRQAPGKERELVAAISVSGGSTYYADSVKGRFTISRDNAKNTVYLQMKSLKPEDTAVYYCAARLRQPYSRGNYWGQGTQVTVSS,high polyreactivity
20,QVQLVESGGCLVQAGGSLRLSCAASGIIFTLYAMGWYRQAPGKEREIVAAISGSGGSTYYADSVKGRFTISRDNAKNTVYLQMNSLKPEDTAVYYCAARGVRGTGLDSRMYYWGQGTQVTVSS,high polyreactivity
21,QVQLVESGGCLVQAGGSLRLSCAASGIIFYRYAMGWYRQAPGKERELVAAITYSGGRTYYADSVKARFTISRDNAKNTVYLQMNSLKTEDTAVSDCAAAGRFGDYWGQGTQVTVSS,high polyreactivity
22,QVQLVESGGCLVQAGGSLRLSCAASGITFGRNTMGWSRQAPGKERELVAAIDSGGNTYADSVKGRFTISRDNAKNTVYLQMNSLKPEDTAVYYCAVDGGEFSSYGYWVQGTQVTVSS,low polyreactivity

row,Sequence,polyreactivity (PSR sort gate)
1,QVQLVESGGCLVQAGGSLRLSCAASGITFRYYPMGWYRQAPGKERELVATISTNGGTTYYADSVKGRFTISRDNAKNTVYLQMNSLKPEDTAVYYCNRKIYVSSARYPSEYGYWGQGTQVTVSS,high polyreactivity
2,QVQLVESGGCLVQAGGSLRLSCAASGLIFYTYAMGWYRQAPGKERELVASISSGGDSTYYADSVKGRFTISRDNAKNTVYLQMNSLKPEDTAVYYCNADYYYSYPYTYYYWGQGTQVTVSS,low polyreactivity
3,QVQLVESGGCLVQAGGSLRLSCAASGLLFYFYAMGWYRQAPGKEREFVAAISSGGDTYYADSVKGRFTISRDNSKNTVYLQMNSLKPVDTAVYYCAVGTVYLTYRGYEYWGQGTQVTVSS,high polyreactivity
4,QVQLVESGGCLVQAGGSLRLSCAASGNIFGIYTMGLYTHAPGKERELVASIRTGGSTNYADSVKGRFTISRDNAKNTDYLQMNSLKPEDSSVYYCNARKLFSSSYGYWGQGTQVTVSS,high polyreactivity
5,QVQLVESGGCLVQAGGSLRLSCAASGRIFAWYAMGWYRQAPGKERELVAAISDSGGSTYYADSVKGRFTISRDNAKNTVYLQMNSLKQEDTAVYYCAADQVVYSAYWSDHYDYWGQGTQVTVSS,low polyreactivity
6,QVQLVESGGCLVQAGGSLRLSCAASGRIFGVYAMGWYRQAPGKERELVAAISEGGGSTNYADSVKGRFTISRDNANNTVYLQMNSLKPEDTAVYYCAATSRTGVRRYYSWGQGTQVTVSS,low polyreactivity
7,QVQLVESGGCLVQAGGSLRLSCAASGRIFLPYAMVWYRQAPGKERELVASITRRGGTTYYADSVKGRFTISRDNAKNTVYLQMNSLKPADSAVYYCAKESWPYGTRGYYHYEYWGQGTQVTVSS,high polyreactivity
8,QVQLVESGGCLVQAGGSLRLSCAASGRIFQRYAMGWYRQAPGKERELVAGITSAGGSTYYADSVKGRFTISRDNAKNTVYLQMKRLKPEDTAVYYCNAGGELRYYGYRAGGTTRSYDYWGQGTQVTVSS,low polyreactivity
9,QVQLVESGGCLVQAGGSLRLSCAASGRIFRTYTMGWYRQAPGKERELVAAITWNGGSTYYADSVKGRFTISRDNAKNTVYLQMNSLKPEDTAVYYCIADRHYSAYPLYDYWGQGTQVTVSS,low polyreactivity
10,QVQLVESGGCLVQAGGSLRLSCAASGRIFSSYAMGWYRQAPGKERELVAAIRSSGDRTYYADSVKGRFTISRDNAKNTVYFQMNSLKPEDTAVYYCAADLRRFQSYYYWGQGTQVTVSS,high polyreactivity
11,QVQLVESGGCLVQAGGSLRLSCAASGRISPDYAMGWYRQAPGTERELVATISSGAGTTYYADSVKGRFTISRDNAKNTVYLQMNSLKPEDTAVYYCAAEDPSEFDYWGQGTQVTVSS,low polyreactivity
12,QVQLVESGGCLVQAGGSLRLSCAASGRTFKQYAIGWSRQAPGKERELVAAITSGGSTYYADSVKGRFTISRDNAKNTVSLHMNSLKPEDNAVYYCNKESYFDTYRRYDSWGQCTQVTVSS,low polyreactivity
13,QVQLVESGGCLVQAGGSLRLSCAASGRTFPYNVMGWYRQAPGKERELDAGITGSGDSTFYADSVKGRFTISRDNAKNTFYLQMNSLNPDDTSVYYCAARYRTLNDGYIRNYWGQGTQVTVSS,low polyreactivity
14,QVQLVESGGCLVQAGGSLRLSCAASGRTFRWYAMGWYRQAPGKESELVAAINPGGSTNYADSVKGRFSISRDNAKNTVYLQMNSLKPEDTAVYYCNAAGYDALTHNYYWGQGTQVTVSS,low polyreactivity
15,QVQLVESGGCLVQAGGSLRLSCAASGRTFYIYAMGWYRQAPGKERELVAAINFSDGSTSYADSVKGRFTISRDNAKHTVYLQMNSLKPEDTAVYYWGQGTKVTVSS,low polyreactivity
16,QVQLVESGGCLVQAGGSLRLSCAASGRTFYPYAMGWYRQAPGQDRELVAAIRSSGGTTYYADSVKGRFTISRDNAKNTVYLQMNSLKREDTAVYYCAAFVDRQGGYYWGQGTQVTVSS,high polyreactivity
17,QVQLVESGGCLVQAGGSLRLSCAASGRTLGYYTMGWYRQAPGKERELVATITPGGSTSYADSVKGRFTISRDNAKNTVYLQMNSLKPEDTAVYYCARTRPYYLLYSSNFRYDYWGQGTQVTVSS,high polyreactivity
18,QVQLVESGGCLVQAGGSLRLSCAASGSIFDVNAMGLYRQAPGKERELVAAISDSGGSTYYADSVKGRFTISRDNAKNTVYLQMNSLKPEDTAVYYCNADWSLYNYYDFDYWGQGTQVTVSS,low polyreactivity
19,QVQLVESGGCLVQAGGSLRLSCAASGSIFVAYAMGWYRQAPGKERELVAAITGRSGRTYYADSVKGRFTISRDNAKNTVYLQMNSLKPEDTAVYYCAARGYGTDDYDYCGQGTQVTVSS,high polyreactivity
20,QVQLVESGGCLVQAGGSLRLSCAASGSTFDYYAMGWYTQAPGKERELVAAISSSGSSTYYADSVKGRFTISRDNAKNTVYLQMNSLKPEDTAVYYCAKGTNYRDDYWGQGTQVTVSS,low polyreactivity
21,QVQLVESGGCLVQAGGSLRLSCAASGSTFGYNAMGWYRQATGKERELVAAITWTGASTYYADSVKGRFTISRDNAKNTVYLKINSLKPEDTEVYYCNRVGYQSMNYWGQGTQVTVSS,low polyreactivity
